“And” between values parts separate entries of the source, which are not always exact repeats. Equal values may be shown once.
Target: the molecule itself
Test: cryo-EM structure

B1: human IMPDH2 S160del (hIMPDH2-S160del) (enzyme)
chain: not shown
stoichiometry N: 4 and 8

Source: publication PMC12248025 (bioRxiv, 2025)
